Data reported in patent US20250215491, “SEQUENCING WITH SINGLE-STRANDED BINDING PROTEINS” (ILLUMINA, INC., published 2025).

How the values were obtained:
[1] = molecular target: T1, Tth SSB (Rev 101) (Thermus thermophilus HB8, UniProt Q5SLP9 SEQ:21-283); assay: EMSA; Kd value only in FIG. 12; 50 mM Tris pH 7.5, 50 mM NaCl, 0.1 mM DTT, 60 C 10 min; 0.25 nM oligo; protein 0.1-4 uM; conditions: chain copies: 2 (inferred); label: 5'-FAM
T1 sequence: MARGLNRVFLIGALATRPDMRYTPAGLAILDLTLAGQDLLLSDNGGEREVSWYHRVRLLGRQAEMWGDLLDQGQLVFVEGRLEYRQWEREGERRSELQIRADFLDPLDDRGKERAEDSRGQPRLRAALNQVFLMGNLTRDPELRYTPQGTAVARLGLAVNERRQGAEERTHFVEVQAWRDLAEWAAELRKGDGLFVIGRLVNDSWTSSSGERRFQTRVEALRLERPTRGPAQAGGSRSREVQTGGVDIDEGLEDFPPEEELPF
Method: (§1) An electrophoretic mobility shift assay was used to determine the binding affinity (Kd) for the Tth F255P SSB and Tth SSB. An oligonucleotide of 35 bases labelled at the 5′ end with fluorescein (FAM) dye was used as the substrate. The sequence of the oligonucleotide is 5′ FAM GTGTAGATCTCGGTGGTCGCCGTATCATTAAAAAA (SEQ ID NO: 14). A titration of Tth F255P SSB or Tth SSB was used ranging from 0.1 to 4 μM. The reaction buffer was 50 mM Tris pH 7.5, 50 mM NaCl, and 0.1 mM DTT with each reaction utilizing […] of labelled oligonucleotide. The reactions were incubated at 60° C. for 10 minutes. The reactions were resolved on 10% acrylamide native TBE gel and imaged with Typhoon Scanner. The fraction of bound versus unbound for each concentration tested was determined and fitted for Kd analysis.

[2] = molecular target: T2, Tth SSB F255P (Rev 101 F225P) (Thermus thermophilus HB8, UniProt Q5SLP9 SEQ:21-283); assay: as above; conditions: chain copies: 2 (inferred); label: 5'-FAM
T2 chain: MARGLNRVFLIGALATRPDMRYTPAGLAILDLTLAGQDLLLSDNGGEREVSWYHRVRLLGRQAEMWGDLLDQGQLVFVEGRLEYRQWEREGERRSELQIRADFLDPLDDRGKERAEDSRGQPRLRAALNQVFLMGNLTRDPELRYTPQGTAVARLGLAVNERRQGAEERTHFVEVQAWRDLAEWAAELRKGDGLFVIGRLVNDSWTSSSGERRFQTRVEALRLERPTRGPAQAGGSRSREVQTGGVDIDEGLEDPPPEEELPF
Method: as §1

GTGTAGATCTCGGTGGTCGCCGTATCATTAAAAAA (ssDNA) [5'-FAM 35-mer oligonucleotide]
binding result [1]: binds | binding result [2]: binds
